Measurements taken from patent publication US20040235732A1, “Method for modulating angiogenesis using prokineticin receptor antagonists” (published 2004).

T1: human prokineticin receptor 1 (PKR1) (human)
T1 chain: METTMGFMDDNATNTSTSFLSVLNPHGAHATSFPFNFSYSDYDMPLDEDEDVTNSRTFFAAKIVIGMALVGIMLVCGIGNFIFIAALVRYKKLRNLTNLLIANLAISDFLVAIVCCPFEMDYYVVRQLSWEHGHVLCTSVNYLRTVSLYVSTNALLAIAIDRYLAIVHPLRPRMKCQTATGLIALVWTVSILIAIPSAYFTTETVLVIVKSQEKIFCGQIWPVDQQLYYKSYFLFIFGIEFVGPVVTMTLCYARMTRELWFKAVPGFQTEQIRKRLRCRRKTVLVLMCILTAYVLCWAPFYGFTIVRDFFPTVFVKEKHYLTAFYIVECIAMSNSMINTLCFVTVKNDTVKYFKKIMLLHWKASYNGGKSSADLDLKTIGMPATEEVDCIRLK


How the values were obtained:
Assay in all cases: cell-based or functional assay
[1] = molecular target: T1, human prokineticin receptor 1 (PKR1)
[2] = molecular target: human prokineticin receptor 2 (PKR2) (human)
Chain of human prokineticin receptor 2 (PKR2) (human) (chain, as listed by the source): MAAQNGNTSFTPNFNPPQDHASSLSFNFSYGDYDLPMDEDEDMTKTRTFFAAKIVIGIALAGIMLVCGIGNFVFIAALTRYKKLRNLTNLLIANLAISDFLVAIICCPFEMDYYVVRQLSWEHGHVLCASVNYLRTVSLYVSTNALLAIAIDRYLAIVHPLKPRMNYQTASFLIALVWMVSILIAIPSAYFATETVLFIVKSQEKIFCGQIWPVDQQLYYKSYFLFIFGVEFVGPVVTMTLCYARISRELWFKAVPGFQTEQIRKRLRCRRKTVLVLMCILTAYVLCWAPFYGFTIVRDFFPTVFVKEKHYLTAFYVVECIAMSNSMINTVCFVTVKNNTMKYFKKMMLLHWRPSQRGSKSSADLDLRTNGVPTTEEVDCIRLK

[3] = molecular target: T1, human prokineticin receptor 1 (PKR1)
[4] = molecular target: human prokineticin receptor 2 (PKR2) (human); remark: listed apart in the source

Row | dissociation constant (Kb), Schild analysis of calcium mobilization [1] [nM] | dissociation constant (Kb), Schild analysis of calcium mobilization [2] [nM] | Antagonistic Activity of PK mutants (Calcium Mobilization Assay), nM; ligand PK1 [3] [nM] | Antagonistic Activity of PK mutants (Calcium Mobilization Assay), nM; ligand PK2 [3] [nM] | Antagonistic Activity of PK mutants (Calcium Mobilization Assay), nM; ligand PK1 [4] [nM] | Antagonistic Activity of PK mutants (Calcium Mobilization Assay), nM; ligand PK2 [4] [nM] | Binder
1 | 261 | 48.9 | 9 | 90 | 15 | 30 | Met PK1 (ligand) MAVITGACERDVQCGAGTCCAISLWLRGLRMCTPLGREGEECHPGSHKVPFFRKRKHHTCPCLPNLLCSRFPDGRYRCSMDLKNINF
2 | 116 | 37.8 | 6 | 110 | 16 | 29 | MV PK1 (ligand) MVITGACERDVQCGAGTCCAISLWLRGLRMCTPLGREGEECHPGSHKVPFFRKRKHHTCPCLPNLLCSRFPDGRYRCSMDLKNINF
